Test results reported in patent publication US20070207519A1 (SANDOZ, published 2007).

Biological target: T1, β-subunit of wild-type CPC acylase derived from Pseudomonas sp. SE83 (Pseudomonas sp. SE83, UniProt P15558 240-774)
T1 construct: About 58 kDa subunit of 535 amino acids; also called AcyII β-subunit; CPC acylase β-subunit
T1 sequence: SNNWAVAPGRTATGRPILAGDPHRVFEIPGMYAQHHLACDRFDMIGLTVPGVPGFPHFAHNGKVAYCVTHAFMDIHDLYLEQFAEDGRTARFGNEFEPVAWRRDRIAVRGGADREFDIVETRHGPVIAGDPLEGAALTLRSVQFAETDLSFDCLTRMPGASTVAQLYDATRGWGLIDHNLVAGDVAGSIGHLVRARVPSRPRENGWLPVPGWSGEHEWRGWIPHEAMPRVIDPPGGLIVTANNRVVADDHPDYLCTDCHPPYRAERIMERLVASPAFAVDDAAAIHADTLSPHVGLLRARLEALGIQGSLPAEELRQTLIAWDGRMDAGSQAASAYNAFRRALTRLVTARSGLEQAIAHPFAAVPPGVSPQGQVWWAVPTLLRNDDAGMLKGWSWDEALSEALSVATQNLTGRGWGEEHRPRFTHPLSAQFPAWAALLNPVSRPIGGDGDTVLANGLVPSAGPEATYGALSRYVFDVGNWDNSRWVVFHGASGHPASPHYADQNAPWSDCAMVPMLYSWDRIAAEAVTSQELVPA
Assay: non-denaturing PAGE and MALDI-TOF of the purified enzyme (single species of about 83 kDa) against denaturing SDS-PAGE (bands of 25 kDa and 58 kDa)
Description: Further, the active fraction of wild-type CPC acylase obtained in Example <2-1> was subjected to non-denaturing PAGE and Coomasie blue staining. As a result, a single band was detected at a position corresponding to the molecular weight of about 83 kDa, which means that the wild-type CPC acylase was purely purified (FIGS. 11a to 11c). Together with the result of non-denaturing PAGE, MALDI-TOF mass spectrophotometry analysis confirmed that the molecular weight of purified enzyme (that is, the active CPC acylase) is about 83 kDa. Furthermore, about 25 kDa of band corresponding to α-subunit and about 58 kDa of band corresponding to β-subunit were detected by denaturing SDS-PAGE.

B1: α-subunit of wild-type CPC acylase derived from Pseudomonas sp. SE83 (enzyme)
chain: TMAAKTDREALQAALPPLSGSLSIPGLSAPVRVQRDGWGIPHIKASGEADAYRALGFVHAQDRLFQMELTRRKALGRAAEWLGAEAAEADILVRRLGMEKVCRRDFEALGAEAKDMLRAYVAGVNAFLASGAPLPIEYGLLGAEPEPWEPWHSIAVMRRLGLLMGSVWFKLWRMLALPVVGAANALKLRYDDGGQDLLCIPPGVEAERLEADLAALRPAVDALLKAMGG
notes: About 25 kDa subunit of 229 amino acids; also called AcyII α-subunit; CPC acylase α-subunit
binding result: binds
